Target: mouse ASIC1a wild type (mouse) (UniProt Q6NXK8)
Chain of UniProt Q6NXK8 (Q6NXK8 whole entry): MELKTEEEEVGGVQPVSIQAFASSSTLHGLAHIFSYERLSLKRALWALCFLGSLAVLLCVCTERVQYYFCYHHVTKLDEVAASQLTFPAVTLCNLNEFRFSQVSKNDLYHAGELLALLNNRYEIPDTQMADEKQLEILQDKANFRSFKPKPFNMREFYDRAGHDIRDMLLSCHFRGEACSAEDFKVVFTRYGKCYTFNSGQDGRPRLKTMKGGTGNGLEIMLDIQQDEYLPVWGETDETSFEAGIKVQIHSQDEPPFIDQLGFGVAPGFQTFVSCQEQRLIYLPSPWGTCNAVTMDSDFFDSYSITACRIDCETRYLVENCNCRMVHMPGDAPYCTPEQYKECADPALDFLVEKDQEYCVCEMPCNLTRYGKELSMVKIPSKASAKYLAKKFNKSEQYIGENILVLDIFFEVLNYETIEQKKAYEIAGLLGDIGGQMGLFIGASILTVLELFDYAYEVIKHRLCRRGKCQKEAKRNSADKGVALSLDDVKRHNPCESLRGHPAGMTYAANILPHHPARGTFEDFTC

BigDyn Arg9Ala (peptide)
fold increase of the EC50 of current rescue against BigDyn (TEVC): > 50 fold
